Measurements taken from US20110165660A1, “ENGINEERED MICROORGANISMS WITH ENHANCED FERMENTATION ACTIVITY” (VERDEZYNE, INC., priority 2009, published 2011).
Several values for one entry are separate records, joined by “and”; a condition that tells them apart may be missing. Identical values can stand only once.

Columns and labels:
[1] = system: Ruminococcus flavefaciens FD-1 (Ruminococcus_FD1) xylose isomerase, SEQ ID NO: 110; experiment: Kinetics of additional xylose isomerase candidates (Km and specific activity); assay type: biochemical; details: xylose 40 to 500 nM; crude S. cerevisiae extract
Source text: The results are show in FIG. 25.

[2] = target: T1, Ruminococcus flavefaciens xylose isomerase, codon-optimized gene variant (XI-R-COOP), gene SEQ ID NO: 33 (Ruminococcus flavefaciens, UniProt Q9S306); experiment: Xylose isomerase kinetics (SDH-coupled, NADH, A340), with and without xylitol; assay type: biochemical; details: xylose about 40 to about 500 mM; pH 7.5, about 30° C.
T1 sequence (Q9S306 1-438): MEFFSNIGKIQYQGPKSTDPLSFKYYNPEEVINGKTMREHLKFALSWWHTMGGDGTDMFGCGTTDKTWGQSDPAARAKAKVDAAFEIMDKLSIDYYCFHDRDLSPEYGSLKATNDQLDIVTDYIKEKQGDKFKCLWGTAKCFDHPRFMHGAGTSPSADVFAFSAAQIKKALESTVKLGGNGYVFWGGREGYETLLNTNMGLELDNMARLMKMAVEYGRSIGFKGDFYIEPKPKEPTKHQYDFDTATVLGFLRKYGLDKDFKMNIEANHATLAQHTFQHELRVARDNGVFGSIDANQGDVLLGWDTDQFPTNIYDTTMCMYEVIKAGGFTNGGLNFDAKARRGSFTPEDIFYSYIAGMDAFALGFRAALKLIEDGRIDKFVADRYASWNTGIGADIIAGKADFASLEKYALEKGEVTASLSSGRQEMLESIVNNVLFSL
Protocol: An additional variant of the native R. flavefaciens xylose isomerase gene (XI-R-COOP) was prepared in which all of the codons were optimized for expression in Saccharomyces cerevisiae. This variant gene was synthesized by IDT DNA Inc. and the sequence is set forth below as SEQ ID NO: 33.

[3] = target: T2, Ruminococcus flavefaciens strain 17 (Siijpesteijn 1948) xylose isomerase, native (XI-R), SEQ ID NO: 31 (gene SEQ ID NO: 29/30) (Ruminococcus flavefaciens, UniProt Q9S306); experiment: as above; assay type: biochemical; details: about 0 to about 50 mM xylitol; pH 7.5, about 30° C.
T2 construct: made in house; host or cells: Saccharomyces cerevisiae BY4742 (p426GPD); soluble whole cell extract, not purified
T2 sequence (Q9S306 1-438): T1 sequence (Q9S306 1-438)
Protocol: (§1) About 20 μg of soluble whole cell extract was incubated in the presence of 100 mM Tris, pH 7.5, 10 mM MgCl2, 0.15 mM NADH (Sigma, St. Louis, Mo.), and about 2 U sorbitol dehydrogenase (Roche) at about 30° C. […] A Beckman DU-800 was utilized with an Enzyme Mechanism software package (Beckman Coulter, Inc.), and the change in the A340 was monitored for 2-3 minutes.
(§2) Approximately 20 μg of soluble whole cell extract from each transformed cell line, prepared using Y-PER plus reagent as described above, was incubated in a solution containing about 100 mM Tris, pH 7.5, 10 mM MgCl ? 2, 0.15 mM NADH (Sigma, St. Louis, Mo.), and 2 U Sorbitol Dehydrogenase (SDH) (Roche, Indianapolis, Ind.) at about 30° C. […] A Beckman DU-800 spectrophotometer was utilized with an Enzyme Mechanism software package (Beckman Coulter, Inc, Brea, Calif.), and the change in the A340 was monitored for 2-3 minutes. […]
(§3) Approximately 20 μg of soluble whole cell extract from each transformed cell line was prepared using Y-PER plus reagent as described above was incubated in a solution containing about 100 mM Tris, pH 7.5, 10 mM MgCl ? […] A Beckman DU-800 spectrophotometer was utilized with an Enzyme Mechanism software package (Beckman Coulter, Inc, Brea, Calif.), and the change in the A340 was monitored for 2-3 minutes.

[4] = target: T3, Piromyces strain E2 xylose isomerase, native (XI-P), SEQ ID NO: 35 (gene SEQ ID NO: 34) (Piromyces sp. E2, UniProt A0ACD6B9F5); experiment: as above; assay type: biochemical; details: about 0 to about 50 mM xylitol; pH 7.5, about 30° C.
T3 construct: soluble whole cell extract; SDH-coupled
Protocol: as §1, §2, §3

xylose [5] = experiment: Industrial yeast strain BF903 with Ruminococcus xylose isomerase: sealed serum bottles on YP plus xylose (xylose utilization, ethanol, cell growth); assay type: cell-based, Saccharomyces cerevisiae; details: FIG. 12
Protocol: The serum bottles were sealed with a butyl rubber stopper to prevent air exchange. As a result, the cultures became anaerobic once the available oxygen in the serum bottle was utilized. In general, anaerobiosis (e.g., the onset of anaerobic conditions) occurred a few hours after the culture was inoculated. Xylose utilization, ethanol production and cell growth were measured every twenty four hours.

xylose [6] = experiment: Industrial yeast strain BF903 with Ruminococcus xylose isomerase: aerobic growth and xylose consumption on YP-xylose; assay type: cell-based, Saccharomyces cerevisiae; details: commercial yeast strain BF903, YP-xylose, 30° C., 7 days, FIG. 11
Protocol: A commercially available industrial diploid strain of Saccharomyces cerevisiae (strain BF903; “Stillspirits” triple distilled yeast, Brewcraft, Albany, New Zealand; available at Hydrobrew, Oceanside, Calif.) was obtained and was made competent for transformation using known yeast cell transformation procedures. […] Transformed yeast containing each construct were grown overnight aerobically in a 15 ml culture tube on YPD media containing 2% glucose. After about 24 hours, about 25 ml of YP media containing 2% glucose and 100 μg/ml G418 was seeded with the cells at an initial OD600 of 0.5 in a 250 ml Erlenmeyer flask and grown aerobically at 30° C. The cultures were then passaged once every 7 days into fresh media, also at an initial OD600 of 0.5.
Measurements were taken of the cell optical density (OD600) to assess cell density and plated onto YPD with 100 μg/ml G418 to ensure that the plasmid was stable. […] The strains were then grown overnight in YPD (with 100 μg/ml G418) and used to inoculate about 50 ml YP-xylose (with 100 μg/ml G418) into disposable 250 ml Erlenmeyer flasks with vented caps at an initial OD600 of about 1. The cultures were allowed to grow aerobically at 30° C. at 200 rpm for 7 days.

[7] = system: xylose isomerase activity; experiment: Heterologous xylose isomerase expression in engineered yeast (active yes/no); details: xylose isomerase of the donor organism expressed in engineered yeast (S. cerevisiae)
xylose [8] = experiment: In vivo evaluation of xylose isomerase constructs in C5 strain: xylose fermentation, aerobic then anaerobic (ethanol, xylose, glucose, OD600, dry cell weight); assay type: cell-based, Saccharomyces cerevisiae; details: final sample at 372 hours
Source text: The engineered strain was designed to include the following genetic modifications: the native Pho13 gene (alkaline phosphatase specific for p-nitrophenyl phosphate) was disrupted by inserting a construct containing the native TLK1 gene (Transketolase-1); the native aldose reductase gene (Gre3) was disrupted by inserting a construct containing the native high-affinity glucose transporter-7 gene (HXT7); the native glucose-repressible alcohol dehydrogenase II gene (adh2) was disrupted by inserting a construct containing the native xylulokinase gene (XYLK); and the native orotidine-5′ phosphate decarboxylase gene (ura3) was disrupted by inserting a construct containing the native transaldolase 1 gene (TAL1). The resulting strain had the following genotype: pho13::TKL1, gre3::HXT7, adh-2::XYLK, ura3::TAL1.
The C5 strain was transformed using standard protocols with either p426GPD (as a control) or the chimeric variants XI-R, XI-Rp5, XI-Rp10, or XI-Rp15. The transformed cells were grown on SC-glucose minus uracil initially and then passaged onto SC-xylose minus uracil. Cultures of each of the above constructs were made in SC-xylose minus uracil—and grown for one week. The cultures were grown aerobically at 30° C. with 250 rpm agitation, 1 vvm sparge of process air, 21% O2. The pH was controlled at about 5.0 with 1N NaOH. […] At 24 hours elapsed fermentation time the fermentation was switched to anaerobic conditions. […] Oxygen was purged with 100% N2 sparge at 1 vvm until percent O2 was below 1%. Aeration was then set at 0.25 vvm 100% N2.
The final sample also measured biomass by dry cell weight.

T3 sequence (A0ACD6B9F5 1-437): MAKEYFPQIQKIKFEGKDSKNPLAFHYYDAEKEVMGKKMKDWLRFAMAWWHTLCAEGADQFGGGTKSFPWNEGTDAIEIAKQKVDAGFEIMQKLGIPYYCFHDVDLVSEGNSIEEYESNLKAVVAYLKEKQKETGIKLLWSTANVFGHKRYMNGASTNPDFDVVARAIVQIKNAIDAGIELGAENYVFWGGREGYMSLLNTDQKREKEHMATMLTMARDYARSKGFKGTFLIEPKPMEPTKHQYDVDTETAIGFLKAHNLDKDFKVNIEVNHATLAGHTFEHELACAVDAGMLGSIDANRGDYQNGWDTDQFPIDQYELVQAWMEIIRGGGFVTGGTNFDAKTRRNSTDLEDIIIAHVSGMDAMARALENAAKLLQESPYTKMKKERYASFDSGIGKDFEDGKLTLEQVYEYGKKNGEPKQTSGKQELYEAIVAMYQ

OC1OC[C@@H](O)[C@H](O)[C@H]1O (some centres unmarked) [xylose]
Km [1]: 71.9 mM
Km [2]: 100 mM

OC[C@@H](O)[C@H](O)[C@@H](O)CO [xylitol]
Ki [3]: 43.6 mM
Ki [4]: 4.79 mM

B1: Ruminococcus flavefaciens: native xylose isomerase from Ruminococcus flavefaciens strain 17 (SEQ ID NO: 31) (protein, listed as Ruminococcus flavefaciens)
chain: T1 sequence (Q9S306 1-438)
cell density versus vector only control (xylose [5]): grew to a higher cell density
ethanol production from xylose versus vector only control (xylose [5]): produced more ethanol
xylose consumption versus vector control (xylose [6]): more efficient at consuming xylose
Active? (yes/no) [7]: Yes
Glucose (xylose [8]): 0 g/L
Ethanol (xylose [8]; listed as XI-R): 15.65 g/L and 15.5 g/L
Xylose (xylose [8]; listed as XI-R): 3.14 g/L and 3.85 g/L
